Experimental data: US20260217862A1 (NBIOS, published 2026)

Molecular target: T1, Human Integrin αVβ3 (human, UniProt P06756 31-992; P05106 27-718)
T1 construct: Commercial heterodimer from ACROBiosystems; No catalogue number or construct limits are printed; also called Integrin aVß3; integrin (ITG)
Experiment: ELISA, CtsZ coated 200 ng/well, integrin αVβ3 titrated from 200 nM in 1/3 steps, detected with biotinylated anti-integrin alpha V antibody and streptavidin-HRP
Experimental: After coating 1×PBS (pH 7.4) containing 200 ng of CtsZ in each well of a 96-well high-binding plate at 4° C. for 16 hours, followed by washing twice with a washing buffer (20 mM Tris-HCl, 150 mM NaCl, 1 mM MnCl₂, 0.05% Tween-20), blocking was performed at room temperature for 2 hours using a blocking buffer (washing buffer containing 3% BSA). After washing twice with a washing buffer, binding was performed at room temperature for 2 hours using a dilution buffer (washing buffer containing 0.5% BSA) containing 200 nM, ⅓ eq. integrin αVβ3. After washing 4 times with a washing buffer, biotinylated anti-human integrin alpha V antibody (diluted to 1:100 with dilution buffer) was treated at room temperature for 1 hour. After washing 4 times with a washing buffer, HRP-conjugated streptavidin was treated at room temperature for 1 hour. After washing 4 times with a washing buffer, followed by addition of ultra TBM matrix, reaction was performed for 2 minutes and the reaction was stopped by adding 2 M H₂SO₄. KD values were calculated from the absorbance at 450 nm using the Prism7 software.
Because CtsZ has an RGD motif binding to integrin, particularly integrin αVβ3, in the pro-region, it was investigated whether the purified CtsZ was in active form by measuring binding affinity for integrin αVβ3 purchased from ACROBiosystems.

T1 sequence (P06756 31-992 limits assumed, chain 1 of 2): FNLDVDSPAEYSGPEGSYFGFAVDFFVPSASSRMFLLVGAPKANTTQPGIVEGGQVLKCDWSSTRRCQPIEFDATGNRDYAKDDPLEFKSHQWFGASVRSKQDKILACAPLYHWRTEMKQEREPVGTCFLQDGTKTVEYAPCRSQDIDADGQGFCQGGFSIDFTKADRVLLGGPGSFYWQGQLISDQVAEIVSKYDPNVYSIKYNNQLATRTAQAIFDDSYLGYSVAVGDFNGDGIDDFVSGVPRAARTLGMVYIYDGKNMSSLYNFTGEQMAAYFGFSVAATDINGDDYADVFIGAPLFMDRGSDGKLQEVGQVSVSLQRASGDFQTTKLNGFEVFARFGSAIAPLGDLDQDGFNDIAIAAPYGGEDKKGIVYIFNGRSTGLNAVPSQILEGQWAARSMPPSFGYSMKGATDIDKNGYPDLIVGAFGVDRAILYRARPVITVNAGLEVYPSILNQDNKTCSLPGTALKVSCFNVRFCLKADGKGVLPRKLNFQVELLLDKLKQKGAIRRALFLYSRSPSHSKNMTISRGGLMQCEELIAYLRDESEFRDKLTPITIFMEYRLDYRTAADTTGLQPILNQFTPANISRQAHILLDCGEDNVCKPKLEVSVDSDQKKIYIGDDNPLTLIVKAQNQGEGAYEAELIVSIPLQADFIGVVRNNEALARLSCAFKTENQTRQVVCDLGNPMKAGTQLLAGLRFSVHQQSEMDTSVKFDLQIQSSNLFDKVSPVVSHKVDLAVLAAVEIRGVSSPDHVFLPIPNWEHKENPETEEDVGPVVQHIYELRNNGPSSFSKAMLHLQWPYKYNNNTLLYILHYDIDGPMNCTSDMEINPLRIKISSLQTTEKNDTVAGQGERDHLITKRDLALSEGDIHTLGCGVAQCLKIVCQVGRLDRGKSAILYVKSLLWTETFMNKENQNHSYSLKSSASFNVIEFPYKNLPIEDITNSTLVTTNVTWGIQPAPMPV
T1 sequence (P05106 27-718 limits assumed, chain 2 of 2): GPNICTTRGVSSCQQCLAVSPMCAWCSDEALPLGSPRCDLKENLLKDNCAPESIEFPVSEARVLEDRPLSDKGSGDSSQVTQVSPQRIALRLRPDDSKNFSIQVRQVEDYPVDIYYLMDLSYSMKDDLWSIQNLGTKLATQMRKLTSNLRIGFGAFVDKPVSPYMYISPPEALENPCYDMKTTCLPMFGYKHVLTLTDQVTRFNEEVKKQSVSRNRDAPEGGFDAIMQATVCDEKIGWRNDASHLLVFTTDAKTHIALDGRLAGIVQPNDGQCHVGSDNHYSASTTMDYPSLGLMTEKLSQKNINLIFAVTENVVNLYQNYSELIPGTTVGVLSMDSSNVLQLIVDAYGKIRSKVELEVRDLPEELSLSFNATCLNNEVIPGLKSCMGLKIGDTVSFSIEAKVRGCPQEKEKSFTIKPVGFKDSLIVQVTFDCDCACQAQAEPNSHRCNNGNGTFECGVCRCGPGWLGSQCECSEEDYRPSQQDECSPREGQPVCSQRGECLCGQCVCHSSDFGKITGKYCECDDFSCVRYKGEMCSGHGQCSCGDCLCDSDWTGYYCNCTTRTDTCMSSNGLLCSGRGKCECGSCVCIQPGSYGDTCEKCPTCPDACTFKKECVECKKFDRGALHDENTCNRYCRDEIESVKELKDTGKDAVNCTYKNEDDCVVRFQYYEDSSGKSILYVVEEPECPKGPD

Kd: ~137 nM
B1: recombinant human cathepsin Z with C-terminal 6x-His tag (enzyme)
chain: not shown
notes: Secreted from Expi-293F cells and purified on Ni-NTA; Glycosylated, about 37 kDa on SDS-PAGE against 33 kDa predicted; also called CtsZ; purified CtsZ
